Experimental data reported in patent US20160257744A1 (Genentech, published 2016).

T1: interleukin 4 (IL4) (UniProt P05112 25-153)
T1 sequence (looked up): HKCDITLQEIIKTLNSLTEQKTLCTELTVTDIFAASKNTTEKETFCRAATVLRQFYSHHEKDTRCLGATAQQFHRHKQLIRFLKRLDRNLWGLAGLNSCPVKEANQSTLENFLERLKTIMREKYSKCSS

T2: interleukin 5 (IL5) (human, UniProt P05113 20-134)
T2 construct: also called human IL5 (R&D Systems)
T2 sequence (looked up): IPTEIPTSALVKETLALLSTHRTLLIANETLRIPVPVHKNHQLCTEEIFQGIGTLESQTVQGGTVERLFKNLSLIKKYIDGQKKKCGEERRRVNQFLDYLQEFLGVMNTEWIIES


Key:
interleukin 4 (IL4) = biological target: T1, interleukin 4 (IL4); assay: SPR (Biacore), Fab over CM5 chip with immobilized IL4, 25 °C
interleukin 5 (IL5) [1] = biological target: T2, interleukin 5 (IL5); assay: SPR (Biacore), Fab over CM5 chip with immobilized human IL5, 25 °C
interleukin 5 (IL5) [2] = biological target: T2, interleukin 5 (IL5); assay: SPR, Fab over immobilized IL5
interleukin 5 (IL5) [3] = biological target: T2, interleukin 5 (IL5); assay: phage competition ELISA (phage IC50), soluble IL5 against IL5-coated wells
Experimental: Fab displaying phage was first incubated with serial dilutions of the respective antigens in solution for 2 h, unbound phage was then briefly captured by antigen coated ELISA wells and detected with anti-M13 HRP conjugate. The concentration of antigen inhibiting 50% of phage binding to antigen coated well is calculated as IC₅₀. NB denotes no detectable binding of phage clone directly to the antigens coated wells.
The relative affinity of each clone was assessed by phage IC₅₀ as above.

HER2 ECD = biological target: T3, HER2 ECD; assay: ELISA: human IgG1 at 250 nM on protein-coated wells, anti-Fc-HRP
T3 construct: one of the irrelevant proteins; also called irrelevant protein coated on ELISA wells

interleukin 13 (IL13) = interleukin 13 (IL13) (UniProt P35225 35-146, limits assumed); assay: as above
Chain of interleukin 13 (IL13) (P35225 35-146 limits assumed): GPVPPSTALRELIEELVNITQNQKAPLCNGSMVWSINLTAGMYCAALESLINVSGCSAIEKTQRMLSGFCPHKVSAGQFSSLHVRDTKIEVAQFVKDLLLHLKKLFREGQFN

BSA = biological target: T4, BSA (bovine, UniProt P02769); assay: as above
T4 construct: negative control protein; also called irrelevant protein coated on ELISA wells
T4 sequence (P02769 25-607 limits assumed): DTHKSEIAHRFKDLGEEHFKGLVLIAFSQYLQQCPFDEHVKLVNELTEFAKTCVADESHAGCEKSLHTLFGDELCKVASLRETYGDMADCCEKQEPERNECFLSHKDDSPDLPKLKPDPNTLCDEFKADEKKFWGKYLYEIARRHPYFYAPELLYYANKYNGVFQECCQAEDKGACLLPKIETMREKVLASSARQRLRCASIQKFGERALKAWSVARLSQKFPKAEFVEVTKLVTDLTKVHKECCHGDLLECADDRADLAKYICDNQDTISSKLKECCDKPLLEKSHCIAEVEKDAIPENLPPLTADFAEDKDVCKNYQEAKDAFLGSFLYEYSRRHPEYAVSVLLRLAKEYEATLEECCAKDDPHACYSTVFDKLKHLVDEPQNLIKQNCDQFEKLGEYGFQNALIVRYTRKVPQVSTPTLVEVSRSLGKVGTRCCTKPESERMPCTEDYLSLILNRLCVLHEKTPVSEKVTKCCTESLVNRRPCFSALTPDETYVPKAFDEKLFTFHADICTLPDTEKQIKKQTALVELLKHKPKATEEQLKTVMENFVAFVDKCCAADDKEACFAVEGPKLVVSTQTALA

| Binder | IC50 (interleukin 5 (IL5) [3]) [µM] | also measured |
| --- | --- | --- |
| 1C36, affinity-matured variant of E7, purified as Fab (Fab, V domains shown, Purified Fab for SPR) VH: EVQLVQSGAEVKKPGASVKVSCKASGYTFTDYFIHWVRQAPGQGLEWIGGIVYDATGFTTYAEEFKGRVTITRDTSTSTAYLELSSLRSEDTAVYYCARGGIFYGMDYWGQGTLVTVSS VL: DIQMTQSPSSLSASVGDRVTITCKASQSVINDAAWYQQKPGKAPKLLIYYTSHRYTGVPSRFSGSGSGTDFTLTISSLQEDFATYYCQQDYTHPWTFGQGTKVEIKR |  | Kd (interleukin 4 (IL4)): 0.0035 µM; koff (interleukin 4 (IL4)): 0.00197 s⁻¹; kon (interleukin 4 (IL4)): 557000 M⁻¹ s⁻¹; koff (interleukin 5 (IL5) [1]): 0.000221 s⁻¹; kon (interleukin 5 (IL5) [1]): 9180 M⁻¹ s⁻¹; Kd (interleukin 5 (IL5) [2]): 0.0241 µM; fold improvement of affinity toward IL5 against E7 (interleukin 5 (IL5) [2]): 37 fold |
| 1C.3 (Fab, V domains shown) VH: EVQLVQSGAEVKKPGASVKVSCKASGYTFTDYFIHWVRQAPGQGLEWIGGIVYDATGFTTYAVEFKGRVTITRDTSTSTAYLELSSLRSEDTAVYYCARGGIFYGMDYWGQGTLVTVSS VL: DIQMTQSPSSLSASVGDRVTITCKASQSVINDAAWYQQKPGKAPKLLIYYTSHRYTGVPSRFSGSGSGTDFTLTISSLQEDFATYYCQQDYTHPWTFGQGTKVEIKR | ~1 |  |
| 1C.11 (Fab, V domains shown) VH: EVQLVQSGAEVKKPGASVKVSCKASGYTFTDYFIHWVRQAPGQGLEWIGGIVYDATGFTIYAENFKGRVTITRDTSTSTAYLELSSLRSEDTAVYYCARGGIFYGMDYWGQGTLVTVSS VL: DIQMTQSPSSLSASVGDRVTITCKASQSVINDAAWYQQKPGKAPKLLIYYTSHRYTGVPSRFSGSGSGTDFTLTISSLQEDFATYYCQQDYISPWTFGQGTKVEIKR | ~1 |  |
| 1C.24 (Fab, V domains shown) VH: EVQLVQSGAEVKKPGASVKVSCKASGYTFTDYFIHWVRQAPGQGLEWIAGIVYDATGFTTYADSFKGRVTITRDTSTSTAYLELSSLRSEDTAVYYCARGGIFYGMDYWGQGTLVTVSS VL: DIQMTQSPSSLSASVGDRVTITCKASQSVINDAAWYQQKPGKAPKLLIYYTSHRYTGVPSRFSGSGSGTDFTLTISSLQEDFATYYCQQDYLHPWTFGQGTKVEIKR | ~1 |  |
| 1C.27 (Fab, V domains shown) VH: EVQLVQSGAEVKKPGASVKVSCKASGYTFTDYFIHWVRQAPGQGLEWIGGIVYDATGFTIYADDFKGRVTITRDTSTSTAYLELSSLRSEDTAVYYCARGGIFYGMDYWGQGTLVTVSS VL: DIQMTQSPSSLSASVGDRVTITCKASQSVINDAAWYQQKPGKAPKLLIYYTSHRYTGVPSRFSGSGSGTDFTLTISSLQEDFATYYCQQDYTHPWTFGQGTKVEIKR | 0.0182 |  |
| 1C.42 (Fab, V domains shown) VH: EVQLVQSGAEVKKPGASVKVSCKASGYTFTDYFIHWVRQAPGQGLEWIGGIVYDATGFTTYADSFKGRVTITRDTSTSTAYLELSSLRSEDTAVYYCARGGIFYGMDYWGQGTLVTVSS VL: DIQMTQSPSSLSASVGDRVTITCKASQSVINDAAWYQQKPGKAPKLLIYYTSHRYTGVPSRFSGSGSGTDFTLTISSLQEDFATYYCQQDYTHPWTFGQGTKVEIKR | 0.0085 |  |
| 1C.91 (Fab, V domains shown) VH: EVQLVQSGAEVKKPGASVKVSCKASGYTFTDYFIHWVRQAPGQGLEWIGGIVYDATGFTTYAEDFKGRVTITRDTSTSTAYLELSSLRSEDTAVYYCARGGIFYGMDYWGQGTLVTVSS VL: DIQMTQSPSSLSASVGDRVTITCKASQSVINDAAWYQQKPGKAPKLLIYYTSHRYTGVPSRFSGSGSGTDFTLTISSLQEDFATYYCQQDYTSPWTFGQGTKVEIKR | ~1 |  |
| 1C.93 (Fab, V domains shown) VH: EVQLVQSGAEVKKPGASVKVSCKASGYTFTDYFIHWVRQAPGQGLEWIGGIVYDATGFTVYADDFKGRVTITRDTSTSTAYLELSSLRSEDTAVYYCARGGIFYGMDYWGQGTLVTVSS VL: DIQMTQSPSSLSASVGDRVTITCKASQSVINDAAWYQQKPGKAPKLLIYYTSHRYTGVPSRFSGSGSGTDFTLTISSLQEDFATYYCQQDYTHPWTFGQGTKVEIKR | ~1 |  |
| 1C.94 (Fab, V domains shown) VH: EVQLVQSGAEVKKPGASVKVSCKASGYTFTDYFIHWVRQAPGQGLEWIGGIVYDATGFTAYADDFKGRVTITRDTSTSTAYLELSSLRSEDTAVYYCARGGIFYGMDYWGQGTLVTVSS VL: DIQMTQSPSSLSASVGDRVTITCKASQSVINDAAWYQQKPGKAPKLLIYYTSHRYTGVPSRFSGSGSGTDFTLTISSLQEDFATYYCQQDYTSPWTFGQGTKVEIKR | ~1 |  |
| 2B.6 (Fab, V domains shown) VH: EVQLVQSGAEVKKPGASVKVSCKASGYTFTDYFIHWVRQAPGQGLEWIAGIVYDATGFTTYADLFKGRVTITIDFSTSTAYLELSSLRSEDTAVYYCARGGIFYGMDYWGQGTLVTVSS VL: DIQMTQSPSSLSASVGDRVTITCKASQSVINDAAWYQQKPGKAPKLLIYYTSHRYTGVPSRFSGSGSGTDFTLTISSLQEDFATYYCQQDYTSPWTFGQGTKVEIKR | ~1 |  |
| 2B.28 (Fab, V domains shown) VH: EVQLVQSGAEVKKPGASVKVSCKASGYTFTDYFIHWVRQAPGQGLEWIAGIVYDATGFTTYADNFKGRVTITRDMSTSTVYLELSSLRSEDTAVYYCARGGIFYGMDYWGQGTLVTVSS VL: DIQMTQSPSSLSASVGDRVTITCKASQSVINDAAWYQQKPGKAPKLLIYYTSHRYTGVPSRFSGSGSGTDFTLTISSLQEDFATYYCQQDYTSPWTFGQGTKVEIKR | 0.0011 |  |
| 2B.35 (Fab, V domains shown) VH: EVQLVQSGAEVKKPGASVKVSCKASGYTFTDYFIHWVRQAPGQGLEWIAGIVYDATGFTTYADTFKGRVTITRDPSTSTVYLELSSLRSEDTAVYYCARGGIFYGMDYWGQGTLVTVSS VL: DIQMTQSPSSLSASVGDRVTITCKASQSVINDAAWYQQKPGKAPKLLIYYTSHRYTGVPSRFSGSGSGTDFTLTISSLQEDFATYYCQQDYTSPWTFGQGTKVEIKR | 0.0015 |  |
| 2B.48 (Fab, V domains shown) VH: EVQLVQSGAEVKKPGASVKVSCKASGYTFTDYFIHWVRQAPGQGLEWIAGIVYDATGFTTYADAFKGRVTITRDTSTSTVYLELSSLRSEDTAVYYCARGGIFYGMDYWGQGTLVTVSS VL: DIQMTQSPSSLSASVGDRVTITCKASQSVINDAAWYQQKPGKAPKLLIYYTSHRYTGVPSRFSGSGSGTDFTLTISSLQEDFATYYCQQDYTSPWTFGQGTKVEIKR | 0.0092 |  |
| 2B.64 (Fab, V domains shown) VH: EVQLVQSGAEVKKPGASVKVSCKASGYTFTDYFIHWVRQAPGQGLEWIAGIVYDATGFTTYADSFKGRFTITRDTSTSTVYLELSSLRSEDTAVYYCARGGIFYGMDYWGQGTLVTVSS VL: DIQMTQSPSSLSASVGDRVTITCKASQSVINDAAWYQQKPGKAPKLLIYYTSHRYTGVPSRFSGSGSGTDFTLTISSLQEDFATYYCQQDYTSPWTFGQGTKVEIKR | ~1 |  |
| 2C.75 (Fab, V domains shown) VH: EVQLVQSGAEVKKPGASVKVSCKASGYTFTDYFIHWVRQAPGQGLEWIAGIVYDATGFTTYADFFKGRVTITRDTSTSTVYLELSSLRSEDTAVYYCARGGIFYGMDYWGQGTLVTVSS VL: DIQMTQSPSSLSASVGDRVTITCKASQSVINDAAWYQQKPGKAPKLLIYYTSHRYTGVPSRFSGSGSGTDFTLTISSLQEDFATYYCQQDYTSPWTFGQGTKVEIKR | 0.0006 |  |
| E7 as human IgG1 (antibody, V domains shown, also called IL4/IL5 dual specific antibody E7) VH: EVQLVQSGAEVKKPGASVKVSCKASGYTFTDYFIHWVRQAPGQGLEWIAGIVYDATGFTTYADDFKGRVTITRDTSTSTAYLELSSLRSEDTAVYYCARGGIFYGMDYWGQGTLVTVSS VL: DIQMTQSPSSLSASVGDRVTITCKASQSVINDAAWYQQKPGKAPKLLIYYTSHRYTGVPSRFSGSGSGTDFTLTISSLQEDFATYYCQQDYTSPWTFGQGTKVEIKR |  | binding result (HER2 ECD): no binding (tested: 250 nM); binding result (interleukin 13 (IL13)): no binding (tested: 250 nM); binding result (BSA): no binding (tested: 250 nM) |
| B1 as human IgG1 (antibody, V domains shown, also called IL4/IL5 dual specific antibody B1) VH: EVQLVQSGAEVKKPGASVKVSCKASGYTFTDYLMHWVRQAPGQGLEWIAVIVSITGRTYYADDFKGRVTITRDTSTSTAYLELSSLRSEDTAVYYCARGGIFYGMDYWGQGTLVTVSS VL: DIQMTQSPSSLSASVGDRVTITCKASQSVINDAAWYQQKPGKAPKLLIYYTSHRYTGVPSRFSGSGSGTDFTLTISSLQEDFATYYCQQDYTPFPLTFGQGTKVEIKR |  | binding result (HER2 ECD): no binding (tested: 250 nM); binding result (interleukin 13 (IL13)): no binding (tested: 250 nM); binding result (BSA): no binding (tested: 250 nM) |
